Measurements reported in patent US20210139579A1.

Target: human ROR1 (hROR1) on the cell surface (human) (UniProt Q01973)
Assay: cell-based or functional assay

Sequence of human ROR1 (hROR1) on the cell surface (human) (Q01973 30-937): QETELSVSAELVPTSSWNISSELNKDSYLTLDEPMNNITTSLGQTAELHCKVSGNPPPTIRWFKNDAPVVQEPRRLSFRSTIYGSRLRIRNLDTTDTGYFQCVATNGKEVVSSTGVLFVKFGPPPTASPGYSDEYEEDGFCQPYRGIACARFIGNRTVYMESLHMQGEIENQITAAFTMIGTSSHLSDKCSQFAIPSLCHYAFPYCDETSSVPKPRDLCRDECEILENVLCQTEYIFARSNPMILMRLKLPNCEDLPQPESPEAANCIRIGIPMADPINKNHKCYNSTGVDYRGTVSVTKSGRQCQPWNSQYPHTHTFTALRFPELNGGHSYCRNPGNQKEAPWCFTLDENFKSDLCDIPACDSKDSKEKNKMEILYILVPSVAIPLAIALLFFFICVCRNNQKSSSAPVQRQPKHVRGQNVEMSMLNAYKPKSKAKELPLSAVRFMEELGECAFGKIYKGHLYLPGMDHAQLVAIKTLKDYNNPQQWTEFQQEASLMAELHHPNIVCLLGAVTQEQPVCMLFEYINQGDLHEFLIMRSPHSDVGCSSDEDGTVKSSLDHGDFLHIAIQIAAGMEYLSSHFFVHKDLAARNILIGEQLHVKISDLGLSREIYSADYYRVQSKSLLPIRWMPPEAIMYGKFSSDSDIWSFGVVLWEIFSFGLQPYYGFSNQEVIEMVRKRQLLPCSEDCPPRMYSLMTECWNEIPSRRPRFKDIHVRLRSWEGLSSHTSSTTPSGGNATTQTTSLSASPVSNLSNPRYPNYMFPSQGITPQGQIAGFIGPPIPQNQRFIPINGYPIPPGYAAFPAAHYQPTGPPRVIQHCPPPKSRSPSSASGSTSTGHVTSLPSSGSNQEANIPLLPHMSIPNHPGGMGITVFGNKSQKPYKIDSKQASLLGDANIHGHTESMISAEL

## 2A2-G5-PNU (antibody)
  IC50, in vitro cell killing of 697 cells: 0.125 µg/mL
  IC50, in vitro cell killing of A549 cells: 76.8 µg/mL
  IC50, in vitro cell killing of HS 578T cells: 1.78 µg/mL
  IC50, in vitro cell killing of HT-29 cells: 19.8 µg/mL
  IC50, in vitro cell killing of MDA-MB-468 cells: 0.727 µg/mL
